T1: mouse PAI-1 (mouse, UniProt P22777 24-401)
T1 sequence: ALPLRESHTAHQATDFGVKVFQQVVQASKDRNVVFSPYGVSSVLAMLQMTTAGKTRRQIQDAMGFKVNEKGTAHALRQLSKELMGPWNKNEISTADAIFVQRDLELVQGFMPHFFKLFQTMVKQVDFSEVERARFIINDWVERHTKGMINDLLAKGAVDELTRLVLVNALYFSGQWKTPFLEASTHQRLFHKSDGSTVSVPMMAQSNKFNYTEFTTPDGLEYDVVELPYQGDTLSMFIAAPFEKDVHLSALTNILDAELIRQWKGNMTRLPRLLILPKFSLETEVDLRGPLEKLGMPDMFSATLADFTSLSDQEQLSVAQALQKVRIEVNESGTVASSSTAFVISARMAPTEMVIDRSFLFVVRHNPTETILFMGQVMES

T2: rabbit PAI-1 (rabbit)
T2 chain: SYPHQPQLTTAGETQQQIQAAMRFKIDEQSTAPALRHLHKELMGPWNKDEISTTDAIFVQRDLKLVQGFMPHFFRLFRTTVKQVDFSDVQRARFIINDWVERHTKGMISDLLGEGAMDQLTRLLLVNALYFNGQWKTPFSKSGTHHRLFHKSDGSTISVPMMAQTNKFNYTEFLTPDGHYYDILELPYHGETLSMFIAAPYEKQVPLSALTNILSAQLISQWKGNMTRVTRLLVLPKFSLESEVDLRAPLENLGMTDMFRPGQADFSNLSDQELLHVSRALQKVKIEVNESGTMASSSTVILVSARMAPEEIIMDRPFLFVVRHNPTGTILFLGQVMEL

B1: rat PAI-1 (other)
chain: SPLPESHTAQQATNFGVKVFQHVVQASKDRNVVFSPYGVSSVLAMLQLTTAGKTRQQIQDAMGFNISERGTAPALRKLSKELMGSWNKNEISTADAIFVQRDLELVQGFMPHFFKLFRTTVKQVDFSEVERARFIINDWVERHTKGMISDLLAKGAVNELTRLVLVNALYFNGQWKTPFLEASTHQRLFHKSDGSTISVPMMAQNNKFNYTEFTTPDGHEYDILELPYHGETLSMFIAAPFEKDVPLSAITNILDAELIRQWKSNMTRLPRLLILPKFSLETEVDLRGPLEKLGMTDIFSSTQADFTSLSDQEQLSVAQALQKVKIEVNESGTVASSSTAILVSARMAPTEMVLDRSFLFVVRHNPTETILFMGQLMEP
notes: bought (US Biological)

How the values were obtained:
[1] = target: T3, human PAI-1, active, wild-type, non-glycosylated (E. coli-derived) (human, UniProt P05121 24-402); assay: cell-based or functional assay
mouse PAI-1 [2] = target: T1, mouse PAI-1; assay: cell-based or functional assay
cynomolgus PAI-1 [3] = target: T4, cynomolgus PAI-1 (cynomolgus, UniProt P05121 24-402 (human entry), limits assumed); assay: cell-based or functional assay
rat PAI-1 [4] = target: B1; assay: cell-based or functional assay
[5] = target: T3, human PAI-1, active, wild-type, …; assay: cell-based or functional assay; remark: listed apart in the source
mouse PAI-1 [6] = target: T1, mouse PAI-1; assay: cell-based or functional assay; remark: listed apart in the source
[7] = target: glycosylated active human PAI-1 produced by CHO cells (human, UniProt P05121 24-402, N-glycosylated (CHO-produced)); assay: cell-based or functional assay
rat PAI-1 [8] = target: B1; assay: cell-based or functional assay; remark: listed apart in the source
[9] = target: T3, human PAI-1, active, wild-type, …; assay: cell-based or functional assay; remark: listed apart in the source
cynomolgus PAI-1 [10] = target: T4, cynomolgus PAI-1; assay: cell-based or functional assay; remark: listed apart in the source
rat PAI-1 [11] = target: B1; assay: cell-based or functional assay; remark: listed apart in the source
[12] = target: T5, PICK167_A01-fgl IgG1 (CAT-1001); assay: competition ELISA (DELFIA): PICK167_A01-fgl IgG1 (CAT-1001) coated on the plate, binding of biotinylated human PAI-1 detected with streptavidin-Eu3+ in the presence of a titration of the unlabelled test antigen (the varied molecule)
T5 construct: fully germlined variant, made as an IgG1 only; also called PICK67A01-fgl

PICK167_A01 IgG1 = assay: competition ELISA (DELFIA): PICK167_A01 IgG1 coated on the plate, binding of biotinylated human PAI-1 detected with streptavidin-Eu3+ in the presence of a titration of the unlabelled test antigen (the varied molecule)
rabbit PAI-1 = target: T2, rabbit PAI-1; assay: competition ELISA (DELFIA), IgG coated, competitor titrated against biotinylated active human PAI-1

Row | Binder | IC50 chromogenic [1] [nM] | IC50 chromogenic (mouse PAI-1 [2]) [nM] | IC50 ratio mouse/human (mouse PAI-1 [2]) | IC50 chromogenic (cynomolgus PAI-1 [3]) [nM] | IC50 chromogenic (rat PAI-1 [4]) [nM] | IC50 ratio rat/human (rat PAI-1 [4]) | IC50 HT-1080 Exo PAI-1 [5] [nM] | IC50 HT-1080 Exo PAI-1 (mouse PAI-1 [6]) [nM] | IC50 HT-1080 Exo PAI-1 (rat PAI-1 [8]) [nM] | also measured
1 | Antibody 01, IgG1, not germlined (antibody, V domains shown) VH: QVQLVQSGAEVKKPGSSVKVSCKASGGTFSSYAISWVRQAPGQGLEWMGGIIPIFGTANYAQKFQGRVTITADESTSTAYMELSSLRSEDTAVYYCAREKRQWLEGHFDYWGRGTLVTVSS VL: DIQMTQSPSTLSASVGDRVTITCRASEGIYRSLAWYQQKPGKAPKLLIYKASSLASGVPSRFSGSGSGTEFTLTISSLQPDDFATYYCQQYSNYPLTFGGGTKVEIK | 1.5 | 30 | 20 | 0.7 | 99.3 | 66.2 | 11.2 | 15.8 | – | IC50 ratio cyno/human (cynomolgus PAI-1 [3]): 0.4; IC50 chromogenic, hu glyco [7]: 1.7 nM
2 | Antibody 15, scFv (scFv, V domains shown) VH: QVQLQQSGAEVKKPGSSVKVSCKASGGTFSSYAISWVRQAPGQGLEWMGGIIPTFGTANYAQKFQGRVTITADESTSTAYMELSGLRSEDTAVYYCAREKRQWLEGHFDYWGRGTPVTVSS VL: DIQMAQSPSFLSASIGDRVTITCRASEGIYHNLAWYQQKPGKAPKLLIYRASSLASGAPSRFSGSGSGTDFTLTISSLQPDDFATYYCQQYSNYPLTFGGGTKLEIR | 7.2 | 66.9 | 9.3 | 2.2 | 64.2 | 8.9 | 36 | 37 | 57 | IC50 ratio cyno/human (cynomolgus PAI-1 [3]): 0.3
3 | Antibody 16, scFv (scFv, V domains shown) VH: QVQLVQSGAEVKKPGSSVKVSCKASGGTFSSYAISWVRQAPGQGLEWMGGIIPTFGTANYAQKFQGRVTITADESTSTAYMELSSLRSEDTAVYYCAREKRQWLEGHFDYWGRGTLVTVSS VL: DIQMTQSPSTLSASVGDRVTITCRASESIYHSLAWYQQKPGKAPKLLIYKASSLASGVPSRFSGSRSGTEFTLTISSLQPDDFATYYCQQYSNYPLTFGGGTKVEIK | – | 4.3 | – | – | 5.6 | – | 16.9 | 17.6 | 52.6 | IC50 chromogenic (FIG. 2a) [9]: 3.6 nM; IC50 chromogenic (FIG. 2b) (cynomolgus PAI-1 [10]): 0.8 nM
4 | Antibody 18, scFv (scFv, V domains shown) VH: QVQLQQSGAEVKKPGSSVKVSCKASGGTFSSYAISWVRQAPGQGLEWMGGIIPTFGTANYAQKLQGRVTITADESTSTAYMELSGLRSEDTAVYYCAREKRQWLEGHFDYWGRGTPVTVSS VL: DIQMTQSPSFLSASIGDRVTITCRASEGIYHALAWYQQKPGKAPKLLIYRASSLASGAPSRFSGSGSGTDFTLTISSLQPDDFATYYCQQYSNYPLTFGGGTKLEIK | 1.3 | 319 | 255 | 0.5 | 238 | 190 | – | – | 37 | fold higher IC50 in the rat chromogenic assay, against the human assay (rat PAI-1 [11]): ~180 fold; IC50 ratio cyno/human (cynomolgus PAI-1 [3]): 0.4
5 | Antibody 20, scFv (scFv, V domains shown) VH: QVQLQQSGAEVKKPGSSVKVSCKASGGTFSSYAISWVRQAPGQGLEWMGGIIPTFGTANYAQKFQGRVTITADESTSTAYMELSSLRSEDTAVYYCAREKRQWLEGHFDYWGRGTLVTVSS VL: DIQMTQSPSTLSASVGDRVTITCRASEGIYHELAWYQQKPGKAPKLLIYRASSLASGVPSRFSGSRSGTEFTLTISSLQPDDFATYYCQQYSDYPLTFGGGTKVEIK | – | 4.9 | – | 1.3 | – | – | 19.1 | 18.1 | 42.4 | –
6 | Antibody 02, IgG1, not germlined (antibody, V domains shown) VH: QVQLVQSGAEVKKPGSSVKVSCKASGGTFSSYAISWVRQAPGQGLEWMGGIIPTFGTANYAQKFQGRVTITADESTSTAYMELSSLRSEDTAVYYCAREKRQWLEGHFDYWGRGTLVTVSS VL: DIQMTQSPSTLSASVGDRVTITCRASEGIYHSLAWYQQKPGKAPKLLIYKASSLASGVPSRFSGSGSGTEFTLTISSLQPDDFATYYCQQYSDYPLTFGGGTKVEIK | 1.6 | 167 | 104 | – | 510 | 317 | 8.7 | 10.9 | – | IC50 chromogenic, hu glyco [7]: 1.5 nM
7 | Antibody 27, scFv (scFv, V domains shown) VH: QVQLQQSGAEVKKPGSSVKVSCKASGGAFSSYAISWVRQAPGQGLEWMGGIIPTFGTANYAQKFQGRVTITADESTSTAYMELSGLRSEDTAVYYCAREKRQWLEGHFDYWGRGTPVTVSS VL: DIQMTQSPSFLSASIGDRVTITCRASEGIYHNLAWYQQKPGKAPKLLIYRASSLASGAPSRFSGSGSGTDFTLTISSLQPDDFATYYCQQYSNYPLTFGGGTKLEIK | – | – | – | 2.2 | 49.8 | – | 18.8 | 16.4 | 33.8 | –
8 | Antibody 09, scFv (scFv, V domains shown) VH: QVQLQQSGAEVKKPGSSVKVSCKASGGTFSSYAISWVRQAPGQGLEWMGGIIPAFDTANYAQKFQGRVTITADESTSTAYMELSGLRSEDTAVYYCAREKRQWLEGHFDYWGRGTPVTVSS VL: DIQMTQSPSFLSASIGDRVTITCQASEGIYHNLAWYQQKPGKAPKLLIYRASSLASGAPSRFSGSGSGTDFTLTISSLQPDDFATYYCQQYSNYPLTFGGGTKLEIK | – | – | – | 0.7 | 29.7 | – | 23 | 21 | 52.7 | –
9 | B1 | – | – | – | – | – | – | – | – | – | IC50 (read off the curve) [12]: ~1 nM; IC50 (read off the curve) (PICK167_A01 IgG1): ~2 nM
10 | Antibody 01, IgG4, not germlined (antibody, V domains shown, whole IgG4; also called Ab 01) VH: QVQLVQSGAEVKKPGSSVKVSCKASGGTFSSYAISWVRQAPGQGLEWMGGIIPIFGTANYAQKFQGRVTITADESTSTAYMELSSLRSEDTAVYYCAREKRQWLEGHFDYWGRGTLVTVSS VL: DIQMTQSPSTLSASVGDRVTITCRASEGIYRSLAWYQQKPGKAPKLLIYKASSLASGVPSRFSGSGSGTEFTLTISSLQPDDFATYYCQQYSNYPLTFGGGTKVEIK | – | – | – | – | – | – | – | – | – | IC50 ratio rabbit/wt (rabbit PAI-1): 9
11 | Antibody 02, IgG4, not germlined (antibody, V domains shown, whole IgG4; also called Ab 02) VH: QVQLVQSGAEVKKPGSSVKVSCKASGGTFSSYAISWVRQAPGQGLEWMGGIIPTFGTANYAQKFQGRVTITADESTSTAYMELSSLRSEDTAVYYCAREKRQWLEGHFDYWGRGTLVTVSS VL: DIQMTQSPSTLSASVGDRVTITCRASEGIYHSLAWYQQKPGKAPKLLIYKASSLASGVPSRFSGSGSGTEFTLTISSLQPDDFATYYCQQYSDYPLTFGGGTKVEIK | – | – | – | – | – | – | – | – | – | IC50 ratio rabbit/wt (rabbit PAI-1): 4.8
